The results in this text go back to the Immune Epitope Database (IEDB).

For the first experiment, the target named is HLA-B*39:06. As to the kind of experiment: IEDB peptide-MHC binding, purified MHC/competitive/radioactivity; ≥ and ≤ were set here for values at or beyond the usual limits of such assays. The conditions noted are these: source organism: Homo sapiens.
The term IC50 denotes the concentration that inhibits the measured activity by half. For the sequence HRLEGLREA, the IC50 is 9.6 nM.

With NRYDGIYKV, the IC50 was determined as 371 nM.

Consider DHHLPPPAA, for which the IC50 is 72 nM.

TQRLIRESA: the IC50 was found to be 11 nM.

For the sequence TFDVAPSRL, the 50% inhibitory concentration (IC50) is 353 nM.

As for YYDEKVVKL, the IC50 amounted to 3730 nM.

For the sequence SRYLGKITA, the IC50 turned out to be 8.1 nM.

Turning to THNYGIGAA, the IC50 worked out at 15 nM.

In the case of YHDIKRITA, the IC50 is 17 nM.

Regarding ERFYGKYTA, the IC50 turned out to be 9.2 nM.

With NRVMLPKAA, the IC50 was 2.7 nM.

Take FRYQGHVGA: the IC50 turned out to be 1.7 nM.

Regarding IEHDVVMKA, the IC50 is 137 nM.

With ERMKLVVQA, the IC50 is 15 nM.

On to ARFTGIKTA, for which the IC50 is 6 nM.

In the case of TRYQIPKEV, the IC50 amounted to 450 nM.

Regarding LQHPFVRSA, the IC50 worked out at 7.7 nM.

GRSIAFHSA: the half-inhibitory concentration (IC50) is 40 nM.

As to NHINVELSL, the IC50 was determined as 27900 nM.

Still in this experiment, the particulars now being: source organism: Mus musculus.
With LVAEAFEHT, the IC50 was no less than 76100 nM.

For the sequence MALWMRFLP, the IC50 worked out at 11900 nM.

Consider IHIDSTPFA, for which the IC50 worked out at 2200 nM.

On to YRFIKIPTH, for which the IC50 is 1350 nM.

With EAFEHTPGV, the IC50 was no less than 77000 nM.

Take TNVFLFLFA: the IC50 came out at 68800 nM.

For the sequence EHTPGVHMA, the IC50 was 1210 nM.

Regarding INSEMFLRS, the IC50 was no less than 77000 nM.

Another experiment concerns the target HLA-B*38:01. The experiment is described as above. As to conditions: source organism: Human immunodeficiency virus 1.
KRHKEFALF: the IC50 was 1100 nM.

As to KMQKEHALF, the IC50 amounted to 12100 nM.

Turning to WHLGQGVSI, the IC50 amounted to 10 nM.

Consider KTQKEYALF, for which the IC50 is 40600 nM.

As for GHQAAMQML, the half-maximal inhibitory concentration (IC50) worked out at 1020 nM.

With MHEDIISLW, the IC50 was 53 nM.

The same experiment, now with this note: source organism: Simian immunodeficiency virus.
Consider IHGQANSDL, for which the IC50 amounted to 2360 nM.

With THTNGVRLL, the IC50 amounted to 617 nM.

For DRFGLAESL, the IC50 was determined as 30 nM.

Turning to DHQAAMQII, the IC50 worked out at 125 nM.

VPSLQYLAL: the IC50 was determined as 1530 nM.

As to NETWYSADL, the IC50 came to 3920 nM.

For the sequence THIQQDPAL, the IC50 amounted to 148 nM.

For NHLPRELIF, the IC50 was found to be 1120 nM.

For WLFSNCRTL, the 50% inhibitory concentration (IC50) amounted to 993 nM.

As for FRQYTAFTL, the IC50 worked out at 17 nM.

Still in this experiment, the particulars now being: source organism: Vaccinia virus.
For the sequence IHIPGDTLF, the IC50 is 11 nM.

Staying with this experiment, now noted: source organism: Variola virus.
Take RHDITGFIL: the IC50 came out at 6.4 nM.

Consider YKEPNSIIL, for which the IC50 worked out at 4730 nM.
